Laboratory results from publication PMC10382590, “Six states of Enterococcus hirae V-type ATPase reveals non-uniform rotor rotation during turnover” (Communications Biology, 2023).

T1: Enterococcus hirae V-ATPase a-subunit (Enterococcus hirae, UniProt P43439 1-664)
T1 construct: a-subunit (stator, membrane-integrated region and extrinsic arm) of the V-type Na+-ATPase of Enterococcus hirae; Modelled by homology (I-TASSER, template PDB 6C6L of another species); also called stator a-subunit; source: E. coli, recombinant; purified as part of the whole EhV-ATPase complex (Ni-NTA, Superdex 200, 0.05% DDM)
T1 sequence (looked up): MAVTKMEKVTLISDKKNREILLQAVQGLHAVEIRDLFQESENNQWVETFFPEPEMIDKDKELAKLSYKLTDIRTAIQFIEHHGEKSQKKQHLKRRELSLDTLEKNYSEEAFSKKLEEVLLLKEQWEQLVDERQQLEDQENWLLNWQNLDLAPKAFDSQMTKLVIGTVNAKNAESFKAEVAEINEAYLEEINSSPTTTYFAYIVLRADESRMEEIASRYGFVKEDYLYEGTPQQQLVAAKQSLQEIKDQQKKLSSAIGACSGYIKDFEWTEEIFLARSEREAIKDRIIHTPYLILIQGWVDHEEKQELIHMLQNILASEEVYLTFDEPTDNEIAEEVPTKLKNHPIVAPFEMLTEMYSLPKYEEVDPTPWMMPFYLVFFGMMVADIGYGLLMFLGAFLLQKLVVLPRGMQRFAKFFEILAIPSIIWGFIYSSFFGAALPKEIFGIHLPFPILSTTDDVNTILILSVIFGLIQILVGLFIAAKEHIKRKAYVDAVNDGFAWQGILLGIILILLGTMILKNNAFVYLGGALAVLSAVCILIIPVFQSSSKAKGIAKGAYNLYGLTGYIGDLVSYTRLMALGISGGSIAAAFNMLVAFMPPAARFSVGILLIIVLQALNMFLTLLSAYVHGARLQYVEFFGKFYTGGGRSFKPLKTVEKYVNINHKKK

B1: Enterococcus hirae V-ATPase d-subunit (natural protein, UniProt P43456 1-328, looked up)
chain: MEYHELNPLIRGRELELISKDTFEQMIQTDSIDSLGEILQSTIYQPYIYDGFDKDFEANLSQERSKLFQWLKESAPEPEIVWIYTMRYTFHNLKVLTKAEITGQNLDHLYIHDGFYSLEVLKDAIHTQVSVELPDSLMDYIREVHEYCEESTILQGIDVIYDRCFLTEQRRLGEQLGYPELLEEIIAFIDLTNITTTARGILQHRSAGFMTTVISSSGSIPKDTLLSFVRGEMASFTQFLLTTDYSELLKQVIHEEQIDLVSLEQLKDDYLSSFYQVAQTQAFGPLPLLAFLNAKEVESKNLRLLIIGKRNHFSLEQLKERMRQVYDL
notes: d-subunit (terminus of the rotor shaft) of the V-type Na+-ATPase of Enterococcus hirae; Modelled by homology (I-TASSER, template PDB 1R5Z of another species) and fitted as a rigid body; also called rotor shaft terminus; source: E. coli, recombinant; purified as part of the whole EhV-ATPase complex (Ni-NTA, Superdex 200, 0.05% DDM)
B2: Enterococcus hirae V-ATPase EG peripheral stalk (complex)
chain 1: MPIDKIITQINETAQLERASFEEMKRKEIDQKFEVKKWQIEADFQKEKASKLEEIERSYRQLRNKQKMQVKQEILNAKQEVLQRLFTEATLQLENEPKEEQLALMKQMIQTLPINGTARLIPGEKSADILTPAVIAEWNEELPFELIREDFTEKAQAGLIIDDAGIQYNFLFSHLIKEIQETMSAEIAKELFD
chain 2: MARILTRIKEAEENNQKKEEQVKAELAQYEQLKNNELIDLNKEFQERLTKLMKEKEKNEEEVTEDEQHKLELILEQFRQKVLEIEKTYLEKEEEEIAKKKNLTNEIIERMKQNNGCH
notes: E-subunit of the V-type Na+-ATPase of Enterococcus hirae; G-subunit of the V-type Na+-ATPase of Enterococcus hirae; Two such stalks stand in the complex; E and G were modelled by homology (templates PDB 4DT0 and 5GAS of other species); also called EG stalk complex; EG stalks; source: E. coli, recombinant; purified as part of the whole EhV-ATPase complex (Ni-NTA, Superdex 200, 0.05% DDM)
B3: Enterococcus hirae V-ATPase D-subunit (natural protein)
chain: MRLNVNPTRMELTRLKKQLTTATRGHKLLKDKQDELMRQFILLIRKNNELRQAIEKETQTAMKDFVLAKSTVEEAFIDELLALPAENVSISVVEKNIMSVKVPLMNFQYDETLNETPLEYGYLHSNAELDRSIDGFTQLLPKLLKLAEVEKTCQLMAEEIEKTRRRVNALEYMTIPQLEETIYYIKMKLEENERAEVTRLIKVKNMGTEE
notes: D-subunit (rotor shaft) of the V-type Na+-ATPase of Enterococcus hirae; also called rotor D-subunit; source: E. coli, recombinant; purified as part of the whole EhV-ATPase complex (Ni-NTA, Superdex 200, 0.05% DDM)

Assays:
[1] = molecular target: T1, Enterococcus hirae V-ATPase a-subunit; experiment: cryo-EM structure; detergent-solubilised (0.05% DDM) whole EhV-ATPase, 0.13 mM, with 7 mM ATP, 100 mM Na+ and Mg2+, vitrified during turnover; six states (1, 1', 2, 2', 3, 3') sorted from one sample, whole-complex maps 4.3-7.7 A, V1-focussed maps 3.8-7.7 A; crystal structures and homology models fitted into the maps; details: both partners purified
[2] = molecular target: B1; experiment: as above; details: both partners purified

Binder	binding result [1]	binding result [2]
B1	binds	–
B2	binds	–
B3	–	binds
